# Data: ChEMBL document CHEMBL2074239, “Characterization of uremic toxin transport by organic anion transporters in the kidney” (Kidney Int, 2004)
# T1: Organic anion transporter 3 (Rattus norvegicus, UniProt Q9R1U7)
# T1 sequence (Q9R1U7 whole entry): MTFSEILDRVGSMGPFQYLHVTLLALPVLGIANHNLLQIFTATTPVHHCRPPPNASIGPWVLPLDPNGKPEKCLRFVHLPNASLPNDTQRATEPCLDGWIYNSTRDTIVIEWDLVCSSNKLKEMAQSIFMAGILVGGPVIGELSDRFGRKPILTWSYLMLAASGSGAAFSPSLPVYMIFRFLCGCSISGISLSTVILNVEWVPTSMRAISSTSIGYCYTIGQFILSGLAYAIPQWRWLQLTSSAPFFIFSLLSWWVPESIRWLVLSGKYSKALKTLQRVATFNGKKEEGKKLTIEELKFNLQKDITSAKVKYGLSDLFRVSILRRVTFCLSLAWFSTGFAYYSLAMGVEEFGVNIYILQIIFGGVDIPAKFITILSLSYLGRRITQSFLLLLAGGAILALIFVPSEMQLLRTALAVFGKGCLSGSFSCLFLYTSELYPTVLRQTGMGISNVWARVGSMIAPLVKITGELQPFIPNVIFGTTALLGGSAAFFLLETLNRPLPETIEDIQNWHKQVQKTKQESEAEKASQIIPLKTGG
# T2: Organic anion transporter 3 (Homo sapiens, UniProt Q8TCC7)
# T2 sequence (Q8TCC7 whole entry): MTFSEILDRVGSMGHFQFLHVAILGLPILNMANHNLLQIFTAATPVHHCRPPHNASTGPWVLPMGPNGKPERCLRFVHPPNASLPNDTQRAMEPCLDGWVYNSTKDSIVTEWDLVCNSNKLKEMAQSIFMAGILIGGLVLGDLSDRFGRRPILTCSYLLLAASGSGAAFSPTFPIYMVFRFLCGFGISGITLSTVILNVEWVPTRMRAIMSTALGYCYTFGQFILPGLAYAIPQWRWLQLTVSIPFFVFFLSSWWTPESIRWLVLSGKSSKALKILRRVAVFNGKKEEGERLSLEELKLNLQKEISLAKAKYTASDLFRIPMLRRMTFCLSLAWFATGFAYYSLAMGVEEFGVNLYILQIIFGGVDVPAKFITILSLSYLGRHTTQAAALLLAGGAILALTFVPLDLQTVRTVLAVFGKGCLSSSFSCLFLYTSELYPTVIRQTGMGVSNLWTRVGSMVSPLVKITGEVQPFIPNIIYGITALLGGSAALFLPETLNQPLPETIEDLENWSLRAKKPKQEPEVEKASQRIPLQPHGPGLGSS
# Key:
# [1] = molecular target: T1, Organic anion transporter 3; experiment: TP_TRANSPORTER: inhibition of benzylpenicillin uptake in Oat3-expressing HEK293 cells; type: functional, cell-based
# [2] = molecular target: T2, Organic anion transporter 3; experiment: TP_TRANSPORTER: inhibition of benzylpenicillin uptake in OAT3-expressing HEK293 cells; type: functional, cell-based
# [3] = substrate: O=C(O)CNC(=O)c1ccccc1; experiment: cells, lysate or membranes named
# [4] = substrate: CCCc1oc(CCC(=O)O)c(C(=O)O)c1C; experiment: (§1) TP_TRANSPORTER: uptake in Oat3-expressing HEK293 cells; type: functional, cell-based
# [5] = substrate: O=S(=O)(O)Oc1c[nH]c2ccccc12; experiment: as §1; type: functional, cell-based
# [6] = substrate: CC(=O)Oc1c[nH]c2ccccc12; experiment: (§2) TP_TRANSPORTER: uptake in OAT1-expressing HEK293 cell; type: functional, cell-based
# [7] = substrate: CCCc1oc(CCC(=O)O)c(C(=O)O)c1C; experiment: as §2; type: functional, cell-based
# [8] = substrate: CCCc1oc(CCC(=O)O)c(C(=O)O)c1C; experiment: (§3) TP_TRANSPORTER: uptake in OAT3-expressing HEK293 cells; type: functional, cell-based
# [9] = substrate: O=S(=O)(O)Oc1c[nH]c2ccccc12; experiment: as §3; type: functional, cell-based
molecule,measurement,setting,value
O=C(O)CNC(=O)c1ccccc1 [HIPPURIC ACID],Ki,[1],19 µM
same,Ki,[2],31 µM
CC(=O)Oc1c[nH]c2ccccc12 [INDOLE ACETATE],Ki,[1],582 µM
same,Ki,[2],491 µM
Solute carrier family 22 member 6 (Rattus norvegicus) (protein) MAFNDLLKQVGGVGRFQLIQVTMVVAPLLLMASHNTLQNFTAAIPPHHCRPPANANLSKDGGLEAWLPLDKQGQPESCLRFTSPQWGPPFYNGTEANGTRVTEPCIDGWVYDNSTFPSTIVTEWNLVCSHRAFRQLAQSLYMVGVLLGAMVFGYLADRLGRRKVLILNYLQTAVSGTCAAYAPNYTVYCVFRLLSGMSLASIAINCMTLNVEWMPIHTRAYVGTLIGYVYSLGQFLLAGIAYAVPHWRHLQLVVSVPFFIAFIYSWFFIESARWYSSSGRLDLTLRALQRVARINGKQEEGAKLSIEVLRTSLQKELTLSKGQASAMELLRCPTLRHLFLCLSMLWFATSFAYYGLVMDLQGFGVSMYLIQVIFGAVDLPAKFVCFLVINSMGRRPAQMASLLLAGICILVNGIIPKSHTIIRTSLAVLGKGCLASSFNCIFLYTGELYPTVIRQTGLGMGSTMARVGSIVSPLVSMTAEFYPSMPLFIFGAVPVVASAVTALLPETLGQPLPDTVQDLKSRSRGKQNQQQQEQQKQMMPLQASTQEKNGL,Km,[3],28 µM
Organic anion transporter 3 (Rattus norvegicus) (protein) MTFSEILDRVGSMGPFQYLHVTLLALPVLGIANHNLLQIFTATTPVHHCRPPPNASIGPWVLPLDPNGKPEKCLRFVHLPNASLPNDTQRATEPCLDGWIYNSTRDTIVIEWDLVCSSNKLKEMAQSIFMAGILVGGPVIGELSDRFGRKPILTWSYLMLAASGSGAAFSPSLPVYMIFRFLCGCSISGISLSTVILNVEWVPTSMRAISSTSIGYCYTIGQFILSGLAYAIPQWRWLQLTSSAPFFIFSLLSWWVPESIRWLVLSGKYSKALKTLQRVATFNGKKEEGKKLTIEELKFNLQKDITSAKVKYGLSDLFRVSILRRVTFCLSLAWFSTGFAYYSLAMGVEEFGVNIYILQIIFGGVDIPAKFITILSLSYLGRRITQSFLLLLAGGAILALIFVPSEMQLLRTALAVFGKGCLSGSFSCLFLYTSELYPTVLRQTGMGISNVWARVGSMIAPLVKITGELQPFIPNVIFGTTALLGGSAAFFLLETLNRPLPETIEDIQNWHKQVQKTKQESEAEKASQIIPLKTGG,Km,[4],11 µM
same,Km,[5],174 µM
Solute carrier family 22 member 6 (Homo sapiens) (protein) MAFNDLLQQVGGVGRFQQIQVTLVVLPLLLMASHNTLQNFTAAIPTHHCRPPADANLSKNGGLEVWLPRDRQGQPESCLRFTSPQWGLPFLNGTEANGTGATEPCTDGWIYDNSTFPSTIVTEWDLVCSHRALRQLAQSLYMVGVLLGAMVFGYLADRLGRRKVLILNYLQTAVSGTCAAFAPNFPIYCAFRLLSGMALAGISLNCMTLNVEWMPIHTRACVGTLIGYVYSLGQFLLAGVAYAVPHWRHLQLLVSAPFFAFFIYSWFFIESARWHSSSGRLDLTLRALQRVARINGKREEGAKLSMEVLRASLQKELTMGKGQASAMELLRCPTLRHLFLCLSMLWFATSFAYYGLVMDLQGFGVSIYLIQVIFGAVDLPAKLVGFLVINSLGRRPAQMAALLLAGICILLNGVIPQDQSIVRTSLAVLGKGCLAASFNCIFLYTGELYPTMIRQTGMGMGSTMARVGSIVSPLVSMTAELYPSMPLFIYGAVPVAASAVTVLLPETLGQPLPDTVQDLESRWAPTQKEAGIYPRKGKQTRQQQEHQKYMVPLQASAQEKNGL,Km,[6],14 µM
same,Km,[7],141 µM
Organic anion transporter 3 (Homo sapiens) (protein) MTFSEILDRVGSMGHFQFLHVAILGLPILNMANHNLLQIFTAATPVHHCRPPHNASTGPWVLPMGPNGKPERCLRFVHPPNASLPNDTQRAMEPCLDGWVYNSTKDSIVTEWDLVCNSNKLKEMAQSIFMAGILIGGLVLGDLSDRFGRRPILTCSYLLLAASGSGAAFSPTFPIYMVFRFLCGFGISGITLSTVILNVEWVPTRMRAIMSTALGYCYTFGQFILPGLAYAIPQWRWLQLTVSIPFFVFFLSSWWTPESIRWLVLSGKSSKALKILRRVAVFNGKKEEGERLSLEELKLNLQKEISLAKAKYTASDLFRIPMLRRMTFCLSLAWFATGFAYYSLAMGVEEFGVNLYILQIIFGGVDVPAKFITILSLSYLGRHTTQAAALLLAGGAILALTFVPLDLQTVRTVLAVFGKGCLSSSFSCLFLYTSELYPTVIRQTGMGVSNLWTRVGSMVSPLVKITGEVQPFIPNIIYGITALLGGSAALFLPETLNQPLPETIEDLENWSLRAKKPKQEPEVEKASQRIPLQPHGPGLGSS,Km,[8],27 µM
same,Km,[9],263 µM
